Source: the supplement of paper PMC9170038

Tests used:
[1] = tested on: MS2 coat protein; experiment: apparent KD of MS2 coat protein, switch OFF state (with FMN for OFF switches, without FMN for ON switches); designed switch direction (-1 OFF switch, 1 ON switch): -1; higher = weaker reporter binding; settings: FMN input: 0 or 200 uM; Eterna round: R93 (includes R88 designs)
Procedure, shortened: (§1)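 Illumina sequencing clusters served as templates for on-chip transcription of the designed RNA switches. SNAP-549-labelled MS2 coat protein was then titrated in twofold steps from 0.7 or 1.5 nM to 3 µM, allowing 0.8–1.5 h per step at first and 10–20 min per step later. The buffer held 100 mM Tris-HCl pH 7.5, 80 mM KCl and 4 mM MgCl2, without or with constant ligand. Apparent KD is the median per design of normalised cluster binding-curve fits.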

[2] = tested on: MS2 coat protein; experiment: apparent KD of MS2 coat protein, switch ON state; designed switch direction (-1 OFF switch, 1 ON switch): -1; higher = weaker reporter binding; settings: FMN input: 0 or 200 uM; Eterna round: R93 (includes R88 designs)
Procedure, shortened: as §1

Sequence | apparent KD of MS2 coat protein [1] [µM] | apparent KD of MS2 coat protein [2] [µM]
ACAAGAUCAGGAUAUACAUGAGGAUCACCCAUGUAUAUCAAAAAGGGACUUACUUAAUGUAGAAGGGAUCAUGU [EX3 280: Random 16] | 0.0139 | 0.0127
ACGUACUCAGGAUAUACGAACAUGUCAAAAGACGUGAAGGGACAUGAGGAUCACCCAUGUAGAAGGGAGUACGA [Mat - Exclusion 2 - JL mod - D6] | 0.148 | 0.0336
ACGUCGGGAGGAUAUACAUGAGGAUCACCCAUGUAAAGCGGGAAAGACGUUUAGUCGAGUAGAAGGCCUGAAGU [JR_Exc003_Sub1709] | 0.0455 | 0.0261
ACUAAACGAGGAUAUACUAACGAACCUCAAACAUAGAUAAGACAUGAGGAUCACCCAUGUAGAAGGCGUAGACU [JR_Exc002_Sub008] | 0.0597 | 0.0746
ACUAAUGAAGGAUAUACAAACAAAAAAAAAACAACAAACAAACAUGAGGAUCACCCAUGUAGAAGGUCAAAAAU [JR_Exc002_Sub1202] | 0.0178 | 0.0222
AGAAAACAUGAGGAUCACCCAUGUGAGGAUAUCGAAAAGAAAAGAAAAGAAAGAAGAAUGAGAAGGCACAAGAA [Khaba] | 0.0281 | 0.0295
AGAAAACAUGAGGAUCACCCAUGUGAGGAUAUCGAUGUCCAAAAAAAAGUGCGGGACUCGAGAAGGCACUUGGG | 0.0337 | 0.0389
AGAAAACAUGAGGAUCACCCAUGUGAGGAUAUCUAAAAGAAAAGAAAAGAAAGAAGAAGGAGAAGGCACAAGAA [Sanakhte] | 0.0294 | 0.0374
AGAAAGUCAGGAUAUACGAAAAAAAAGGGAAACAACAAGGGACAUGAGGAUCACCCAUGUAGAAGGGACAAGAA [Diamond 98] | 0.14 | 0.0928
AGAAAGUGAGGAUAUACAGAUAAAAAAACGAAAAAAAAUCUGUAGAAGGCACAUGAGGAUCACCCAUGUAAAGA [Mat - Exclusion 4 - Mayanna - D108] | 0.0371 | 0.0379
AGAAAUGUAGGAUAUACAUGAGGAUCACCCAUGUGGGAGGAGGAGCAAACAAGACGAGGUAGAAGGACAACGAC [JR_Exc003-Sub903] | 0.0792 | 0.0735
AGCAAACAUGAGGAUCACCCAUGUUAGGAUAUGAACGAAAUAAAAUAAAAAUAAAAGUUCAGAAGGGACGAGCA [Mat - Exclusion 1 - Eli mod - D27] | 0.0371 | 0.0224
AGCAAGUUAGGAUAUGCGAAGUCAGGACACACACUGACGAAGCAGAAGGAACAUGAGGAUCACCCAUGUAAGCA [JR_Exclusion-4 65% 4] | 0.0166 | 0.022
AGCACGGUAGGAUAUACGAACAAAACGGGAGAACUAAAGGGACAUGAGGAUCACCCAUGUAGAAGGACCAAGCA [Diamond 90] | 0.119 | 0.042
AGCACGUCAGGAUAUACGAAAAAAAAGGGAAACAACAAGGGACAUGAGGAUCACCCAUGUAGAAGGGACUAGCA [Diamond 97] | 0.0443 | 0.0494
AGCUAGUCAGGAUAUACGAAAAUGACAGAAGACGUAAGGGAACAUGAGGAUCACCCAUGUAGAAGGGACUAGCA [Diamond 42] | 0.0677 | 0.0266
AGCUAGUCAGGAUAUACGAACAUGUCAAAAGACGUGAACGGACAUGAGGAUCACCCAUGUAGAAGGGACUAGCA [Diamond 5] | 0.0175 | 0.0162

Sequence | apparent KD of MS2 coat protein [1] [µM] | apparent KD of MS2 coat protein [2] [µM]
AGCUAGUCAGGAUAUACGAACAUGUCAAAAGACGUGAGGGAACAUGAGGAUCACCCAUGUAGAAGGGACUAGCA [Moving G segment in JL's topscorer (74%)] | 0.0375 | 0.0366
AGCUAGUCAGGAUAUACGAGAAAGAAAGAAGACGUGAAGGGACAUGAGGAUCACCCAUGUAGAAGGGACUAGCA [Diamond 26] | 0.0671 | 0.0303
AGCUAGUCAGGAUAUACGAGAAUGACAAAAGACGUGAAGGGACAUGAGGAUCACCCAUGUAGAAGGGACUAGCA [Diamond 24] | 0.117 | 0.0392
AGCUAGUGAGGAUAUACGAACAAGUCAACGGACUGUAAGGGACAUGAGGAUCACCCAUGUAGAAGGCACUAGCA [Diamond 58] | 0.148 | 0.0294
AGCUAGUGAGGAUAUACGAACAUGUCAAAAGACGUGAAGAAACAUGAGGAUCACCCAUGUAGAAGGCACUAGCA [Mat - Exclusion 2 - JL-Eli mod - D55] | 0.0149 | 0.0155
AGGAGACAUGAGGAUCACCCAUGUUAGGAUAUGAACGAAAUAAAAUAAAAAUAAAAGUUCAGAAGGAACGAAAA [Mat - Exclusion 1 - Eli mod - D10] | 0.0566 | 0.0346
AGGGAGUAAGGAUAUGCAUAUAAUGAAGAGAAAGAAAAGAAGCAGAAGGUACAUGAGGAUCACCCAUGUAAAAA [milkweed 2] | 0.0227 | 0.0284
AGUAGUACAGGAUAUACAUGAGGAUCACCCAUGUGAGAAUUAAGUGGCGUACCACAAAGUAGAAGGGUACUACA [Mat - Exclusion 3 - JL mod - D38] | 0.211 | 0.0401
AGUCGGCGAGGAUAUACAUGAGGAUCACCCAUGUGAGAGAAAAAAGUGAGUUAGACAAGUAGAAGGCGCUGACA [JL Lego Mod 7] | 0.172 | 0.0441
AGUGAGUGAGGAUAUGCUAGAAGAAUAAAAGAAAUAACGUAGCAGAAGGCACAUGAGGAUCACCCAUGUACACA [May 66] | 0.0225 | 0.0256
AGUUGGCGAGGAUAUACAUGAGGAUCACCCAUGUAAGAGAAAAAAAGGAGAAAAAAAAGUAGAAGGCGCUGACA [Mat - Exclusion 3 - Lego mod - D45] | 0.0419 | 0.0354
AGUUGGCGAGGAUAUACAUGAGGAUCACCCAUGUGAAAGAAAAAAGUGAAAAAGCAAAGUAGAAGGCGCUGACA [73%, Moding Norbert Elias, 5] | 0.192 | 0.0349
AUAAAACAUGAGGAUCACCCAUGUGAGGAUAUCCUAAAAGAAAGAAAAAAAAAAAAAUGGAGAAGGCACAAUAA [Amethyst 47] | 0.159 | 0.119
AUAAAACAUGAGGAUCACCCAUGUGAGGAUAUGCGAAAAUAAAUAAAAUAAAAUAAAAGCAGAAGGUACAAAUA [LROPPY Exclusion 1 - v04_deltaG=2.5 breakup some As] | 0.0402 | 0.0293
AUAAAACAUGAGGAUCACCCAUGUGAGGAUAUGCUAAAAUAAAAUAAAAUAAAAUAAUGCAGAAGGCACAAAUA [Fancy Pants] | 0.0538 | 0.0376
AUAAACUGAGGAUAUACAUGAGGAUCACCCAUGUAAAAAAAAAAAUGAUCCUCAAAAAGUAGAAGGCAGAAUAA [JR_Exc003_Sub016] | 0.0358 | 0.0234
AUAGUACAUGAGGAUCACCCAUGUCAGGAUAUGCGAAACGAAAAAAAAAAAAAGUGAAGUAGAAGGGACUAUAA [EX1 Malc#9] | 0.0304 | 0.0298
